{
  "source": "paper PMC8452682",
  "about": "“Unwinding of a DNA replication fork by a hexameric viral helicase” (Nature Communications, 2021)",
  "molecular_target": "the molecule itself",
  "experiment": "cryo-EM structure; E1RF complex: 60 uM E1 assembled with 10 uM fork DNA, no nucleotide, purified by gel filtration (10 mM Tris-Cl pH 8.0, 225 mM NaCl, 2 mM DTT, 0.1 mM PMSF, 1 mM EDTA); hexamer on DNA; Titan Krios 300 kV, K3",
  "data": [
    {"protein": "Bovine papillomavirus (BPV) E1 helicase, full-length, wild type (enzyme, Replication protein E1 of bovine papillomavirus (BPV), full length; C-terminal acidic tail is residues 579-605; Hexamer assembled on a synthetic DNA replication fork (30 bp dsDNA, 3' T20, 13-base 5' tail) without nucleotide; also called E1 protein; subunits A-F of the E1RF complex; source: expressed as a GST fusion protein, purified (glutathione sepharose, thrombin cleavage, cation and anion …)) MANDKGSNWDSGLGCSYLLTEAECESDKENEEPGAGVELSVESDRYDSQDEDFVDNASVFQGNHLEVFQALEKKAGEEQILNLKRKVLGSSQNSSGSEASETPVKRRKSGAKRRLFAENEANRVLTPLQVQGEGEGRQELNEEQAISHLHLQLVKSKNATVFKLGLFKSLFLCSFHDITRLFKNDKTTNQQWVLAVFGLAEVFFEASFELLKKQCSFLQMQKRSHEGGTCAVYLICFNTAKSRETVRNLMANTLNVREECLMLQPAKIRGLSAALFWFKSSLSPATLKHGALPEWIRAQTTLNESLQTEKFDFGTMVQWAYDHKYAEESKIAYEYALAAGSDSNARAFLATNSQAKHVKDCATMVRHYLRAETQALSMPAYIKARCKLATGEGSWKSILTFFNYQNIELITFINALKLWLKGIPKKNCLAFIGPPNTGKSMLCNSLIHFLGGSVLSFANHKSHFWLASLADTRAALVDDATHACWRYFDTYLRNALDGYPVSIDRKHKAAVQIKAPPLLVTSNIDVQAEDRYLYLHSRVQTFRFEQPCTDESGEQPFNITDADWKSFFVRLWGRLDLIDEEEDSEEDGDSMRTFTCSARNTNAVD", "values": [
      {"measurement": "stoichiometry N", "value": 6}
    ]}
  ]
}
